Results on nine molecules are retold here after patent US20180141989A1 (BOARD OF REGENTS OF THE UNIVERSITY OF OKLAHOMA, published 2018).

Where no end group is shown, it is not given here.

Test [1] addresses MBP-RAMP2 ECD [L106R]-(GS)5-CLR ECD-H6 fusion protein (human) (UniProt O60895). The test can be described thus: FP competition vs FITC-AM W/W probe, purified ECD fusion.
Test [2] shares this target. The test can be described thus: FP (anisotropy) competition: displaces FITC-Ahx-AM(37-52)NH2[S45W,Q50W] probe (7 nM) from MBP-RAMP2 ECD[L106R]-(GS)5-CLR ECD-H6 (110 nM) [G-H) panel G].
The target of test [3] is T1, MBP-RAMP1 ECD-(GS)5-CLR ECD-H6 fusion protein (human, UniProt O60894 24-111; Q16602 29-144).
T1 construct: range 24-111;range 29-144; Tethered ECD fusion made in E. coli; used in the FP assay at 15 nM; also called MBP-hRAMP1.24-111-(Gly-Ser)5-hCLR.29-144-H6
T1 sequence (O60894 other isoform, or with tags, fused parts or gaps limits assumed, form in doubt): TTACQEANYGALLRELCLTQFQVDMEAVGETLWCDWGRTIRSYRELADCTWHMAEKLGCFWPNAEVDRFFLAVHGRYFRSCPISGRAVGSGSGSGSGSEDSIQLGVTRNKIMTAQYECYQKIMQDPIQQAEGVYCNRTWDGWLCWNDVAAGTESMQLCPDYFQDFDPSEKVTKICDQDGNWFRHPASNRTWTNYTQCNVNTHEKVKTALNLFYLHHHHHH
The test can be described thus: FP competition vs FITC-AM W/W probe, purified ECD fusion. The procedure: (§1) Fluorescence polarization peptide binding assay. […] The reactions (50 μL) were incubated for 2 hours at room temperature to reach equilibrium, and the anisotropy was measured in black half-area 96-well plates using a BMG LABTECH's POLARstar® Omega plate reader (Ortenberg, Germany). The reaction buffer was 50 mM HEPES, pH 7.5, 150 mM NaCl, 0.5 mg/ml fatty acid-free BSA, 0.5 mM EDTA, 0.5 mM maltose. KI values were calculated using nonlinear regression fitting of the competition curves to the exact analytical equations of Roehrl et al. (Biochemistry (2004) 43:16056-66) using GraphPad Prism 5.0 (GraphPad Software, San Diego Calif.).
(§2) The large size difference between the MBP-RAMP ECD-CLR ECD fusion proteins (˜65 kDa) and the probe (˜2.5 kDa) ensures a significant anisotropy difference between bound and free states of the probe. […] Kd values for the probe at each of the tethered ECD fusion proteins were determined in equilibrium saturation binding experiments (data not shown), and KI values were determined for unlabeled peptides in equilibrium competition experiments (Table 1; FIGS. 2-5). The data were analyzed according to exact analytical equations using non-linear regression curve fitting in GraphPad Prism 5.0 (GraphPad Software) via user-defined equations.

Test [4] concerns the target T2, MBP-RAMP1 ECD-(GS)5-CTR ECD-H6 fusion protein (human, UniProt O60894 27-118; P30988 34-141, limits assumed).
T2 construct: extracellular domain; CTR-based proteins were produced in HEK293T cells (N-glycosylated); also called RAMP1-CTR ECD; RAMP1-CTR
As to the kind of experiment: AlphaLISA competition vs Biotin-AC413 probe, purified AMY1 ECD fusion. On the procedure: A single representative experiment conducted with duplicate samples is shown. […] The reactions were incubated for 5 hours at room temperature to reach equilibrium, and the luminescence was measured in white 384-well plates using a BMG LABTECH's POLARstar® Omega plate reader (Ortenberg, Germany). The reaction buffer was 50 mM MOPS, pH 7.4, 150 mM NaCl, 7 mg/ml fatty acid-free BSA and the streptavidin-coated donor beads and MBP-antibody coated acceptor beads were at 15 μg/ml each. IC₅₀ values were calculated using nonlinear regression fitting of the competition curves to a three-parameter, one-site competitive binding equation in GraphPad Prism 5.0 (GraphPad Software, San Diego Calif.).

The target of test [5] is T1, MBP-RAMP1 ECD-(GS)5-CLR ECD-H6 fusion …. The test can be described thus: ratio of FP KI values at the two ECD complexes. The procedure:
as §1, §2

Test [6] has the same target. The test can be described thus: FP (anisotropy) competition: displaces FITC-Ahx-AM(37-52)NH2[S45W,Q50W] probe (7 nM) from MBP-RAMP1 ECD-(GS)5-CLR ECD-H6 (15 nM) [A-C) panel C]. On the procedure:
as §1
as §1, with “Single representative experiments conducted with duplicate samples are shown.” for “Fluorescence polarization peptide binding assay.”, “reactions” for “reactions (50 μL)”

The target in test [7] is MBP-RAMP2 ECD [L106R]-(GS)5-CLR ECD-H6 fusion protein (human) (UniProt O60895). As to the kind of experiment: FP (anisotropy) competition: displaces FITC-Ahx-AM(37-52)NH2[S45W,Q50W] probe (7 nM) from MBP-RAMP2 ECD[L106R]-(GS)5-CLR ECD-H6 (110 nM) [I-K) panel K].
Sequence of MBP-RAMP2 ECD [L106R]-(GS)5-CLR ECD-H6 fusion protein (human) (O60895 other isoform, or with tags, fused parts or gaps L106R L106R): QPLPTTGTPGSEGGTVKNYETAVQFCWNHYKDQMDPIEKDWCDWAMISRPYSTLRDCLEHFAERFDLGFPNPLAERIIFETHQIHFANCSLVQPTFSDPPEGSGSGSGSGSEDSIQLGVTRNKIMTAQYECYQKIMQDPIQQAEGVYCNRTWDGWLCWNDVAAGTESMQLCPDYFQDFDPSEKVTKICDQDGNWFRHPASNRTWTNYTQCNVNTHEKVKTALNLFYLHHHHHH
Test [8] concerns the target T1, MBP-RAMP1 ECD-(GS)5-CLR ECD-H6 fusion …. As to the kind of experiment: FP (anisotropy) competition: displaces FITC-Ahx-AM(37-52)NH2[S45W,Q50W] probe (7 nM) from MBP-RAMP1 ECD-(GS)5-CLR ECD-H6 (15 nM) [I-J) lower graph]. On the procedure:
as §1

For test [9], the target named is MBP-RAMP2 ECD [L106R]-(GS)5-CLR ECD-H6 fusion protein (human) (UniProt O60895). The test can be described thus: FP (anisotropy) competition: displaces FITC-Ahx-AM(37-52)NH2[S45W,Q50W] probe (7 nM) from MBP-RAMP2 ECD[L106R]-(GS)5-CLR ECD-H6 (110 nM) [A-C) panel A].
Test [10] deals with T1, MBP-RAMP1 ECD-(GS)5-CLR ECD-H6 fusion …. As to the kind of experiment: FP (anisotropy) competition: displaces FITC-Ahx-AM(37-52)NH2[S45W,Q50W] probe (7 nM) from MBP-RAMP1 ECD-(GS)5-CLR ECD-H6 (15 nM) [A-C) panel B]. The procedure: as §1
For test [11] the target is unchanged. The test can be described thus: AlphaLISA competition: displaces Biotin-CGRP probe (50 nM) from the RAMP1-CLR ECD fusion protein (5 nM). On the procedure:
The probes were as described in Moad and Pioszak (Protein Sci. (2013) 22:1775-85). The reactions were incubated for 5 hours at room temperature to reach equilibrium, and the luminescence was measured in white 384-well plates using a BMG LABTECH's POLARstar® Omega plate reader (Ortenberg, Germany). The reaction buffer was 50 mM MOPS, pH 7.4, 150 mM NaCl, 7 mg/ml fatty acid-free BSA, and the streptavidin-coated donor beads and MBP-antibody coated acceptor beads were at 15 μg/ml each. IC₅₀ values were calculated using nonlinear regression fitting of the competition curves to a three-parameter, one-site competitive binding equation in GraphPad Prism 5.0 (GraphPad Software, San Diego Calif.).
Background: In Alpha technology, singlet oxygen from a donor bead excites a nearby acceptor bead.

For test [12], the target named is MBP-RAMP2 ECD [L106R]-(GS)5-CLR ECD-H6 fusion protein (human) (UniProt O60895). As to the kind of experiment: AlphaLISA competition: displaces Biotin-AM probe (25 nM) from the RAMP2-CLR ECD fusion protein (5 nM).
Test [13] shares this target. The test can be described thus: ratio of FP KI values at the two ECD complexes.
The target is the same in test [14]. As to the kind of experiment: FP (anisotropy) competition: displaces FITC-Ahx-AM(37-52)NH2[S45W,Q50W] probe (7 nM) from MBP-RAMP2 ECD[L106R]-(GS)5-CLR ECD-H6 (110 nM) [A-C) panel B].
For test [15], the target named is T1, MBP-RAMP1 ECD-(GS)5-CLR ECD-H6 fusion …. The test can be described thus: FP (anisotropy) competition: displaces FITC-Ahx-AM(37-52)NH2[S45W,Q50W] probe (7 nM) from MBP-RAMP1 ECD-(GS)5-CLR ECD-H6 (15 nM) [F-H) panel F]. On the procedure: as §1
Test [16] has the same target. The test can be described thus: FP (anisotropy) competition: displaces FITC-Ahx-AM(37-52)NH2[S45W,Q50W] probe (7 nM) from MBP-RAMP1 ECD-(GS)5-CLR ECD-H6 (15 nM) [D-E) panel D]. The procedure:
as §1

Test [17] concerns the target MBP-RAMP2 ECD [L106R]-(GS)5-CLR ECD-H6 fusion protein (human) (UniProt O60895). The test can be described thus: AlphaLISA competition vs Biotin-AM probe.
Test [18] shares this target. As to the kind of experiment: AlphaLISA or AlphaScreen competition assays.

T2 sequence (O60894 other isoform, or with tags, fused parts or gaps limits assumed): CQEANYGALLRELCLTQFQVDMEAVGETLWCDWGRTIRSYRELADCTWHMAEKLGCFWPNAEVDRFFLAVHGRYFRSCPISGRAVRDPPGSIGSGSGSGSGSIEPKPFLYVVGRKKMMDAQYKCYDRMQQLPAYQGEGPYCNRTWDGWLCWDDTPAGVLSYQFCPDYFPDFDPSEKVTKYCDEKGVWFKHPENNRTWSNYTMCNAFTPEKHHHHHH

As a reminder, the Ki is the dissociation constant of the complex between target and ligand, obtained from inhibition or displacement. Low readings indicate higher affinity, high ones lower affinity. In [1], DKDNVAPRWLIGPWGF-NH2 [AM(37-52)NH2 [S45W, K46L, S48G, Q50W, Y52F]] registered a Ki of 1250 nM and a pKI of 5.9. Besides, the IC50 (read off the curve) in test [2] was determined as 200 nM.
For orientation: IC50 means the midpoint of a concentration-inhibition curve. A lower IC50 goes with greater potency. In test [1], FVPTDVGPWSF-NH2 [CGRP(27-37)NH2 [N31D, S34P, K35W, A36S]] came in with a Ki of 2450 nM and a pKI of 5.61. Further, in test [3], the inhibitory constant (Ki) came out at 1.32 nM and the pKI was 8.88. The IC50 in test [4] is 260 nM. In addition, in test [5], the “Receptor Selectivity (fold, over RAMP2-CLR ECD)” value was 1860 fold. Further, the “IC50 (read off the curve)” value in test [6] is approximately 10 nM.
With DKWNVAPRSKISPWGY-NH2 (also called AM(37-52)NH2 [D39W, Q50W]) [AM(37-52) D39W/Q50W], the IC50 (read off the curve) is 300 nM in test [7] and approximately 400 nM in test [8].
For DKDNVAPRWKISPWGY-NH2 (also called S45W/Q50W double mutant) [AM(37-52)NH2 [S45W, Q50W]], the IC50 (read off the curve) is 200 nM in [9] and approximately 100 nM in test [10]. Moreover, the Ki in [1] was determined as 81.3 nM; in [3], 44.7 nM. The pKI came out at 7.09 in test [1] and 7.35 in test [3]. In addition, the IC50 stood at 17 nM in test [11] and 20 nM in [12].
In test [1], DKDNVAPRSKISPFGY-NH2 [AM(37-52)NH2 [Q50F]] came in with a Ki of 2140 nM and a pKI of 5.67. Moreover, in test [3], the inhibition constant Ki came to 10500 nM and the pKI stood at 4.98. Also, in test [13], the Receptor Selectivity (fold, over RAMP1-CLR ECD) came out at 5 fold. In addition, the IC50 (read off the curve) in [14] is 4000 nM.
In [1], DKDNVAPRTLISPWGY-NH2 [AM(37-52)NH2[S45T, K46L, Q50W]] showed a Ki of 1570 nM and a pKI of 5.8. In test [3], this molecule had a Ki of 65.6 nM and a pKI of 7.18. Further, the “IC50 (read off the curve)” value in test [15] is approximately 200 nM. The “Receptor Selectivity (fold, over RAMP2-CLR ECD)” value in test [5] was determined as 24 fold.
In the case of DKDNVAPRWLISPWGF-NH2 [AM(37-52)NH2 [S45W, K46L, Q50W, Y52F]], the inhibition constant (Ki) was found to be 4070 nM in test [1] and 1.91 nM in test [3]. The pKI in [1] amounted to 5.39; in test [3], 8.72. Also, the “IC50 (read off the curve)” value in [16] was approximately 20 nM. In [4], this molecule yielded an IC50 of 16000 nM. Moreover, the “Receptor Selectivity (fold, over RAMP2-CLR ECD)” value in test [5] was 2130 fold.
For DKDNVAPRSKISPWGY-NH2 [AM(37-52)NH2 [Q50W]], the Ki is 316 nM in [1] and 501 nM in test [3]. For the same molecule, the figures for the pKI in test [1] and in test [3] were 6.5 and 6.3, respectively. For the same molecule, the “IC50 (read off the curve)” value in test [10] is approximately 1000 nM; in test [14], 600 nM. Also, the IC50 in test [11] was determined as 400 nM; in test [12] it was 44 nM. For the same molecule, the fold increase in affinity (over AM(37-52)NH2, implied) in test [17] worked out at 100 fold.
For the molecule DKDNVAPRSKISPQGY-NH2 [AM(37-52)NH2], the Ki in [1] amounted to 20400 nM. The molecule further showed a pKI in test [1] of 4.69. Also, the IC50 is 5000 to 15000 nM in test [18] and 5000 nM in test [12].
